Measured values from PMC5532214, “Natural variations in the biofilm-associated protein BslA from the genus Bacillus” (Scientific Reports, 2017).
One block for each molecule: values may come before it.

Columns and labels:
Test in all cases: SEC; purified, untagged mature regions of the proteins analysed by size exclusion chromatography; SDS-PAGE with and without β-mercaptoethanol was run alongside
[1] = biological target: Bacillus amyloliquefaciens BslA(42-181) (Bacillus amyloliquefaciens FZB42)
[2] = biological target: Bacillus licheniformis BslA(40-179) (Bacillus licheniformis DSM13)
[3] = biological target: Bacillus pumilus BslA(37-177) (Bacillus pumilus SAFR-032)
[4] = biological target: the molecule itself

- stoichiometry N [1]: 2
Molecule: Bacillus amyloliquefaciens BslA(42-181) (domain or fragment)

- stoichiometry N [2]: 2
Molecule: Bacillus licheniformis BslA(40-179) (domain or fragment)

- stoichiometry N [3]: 2
Molecule: Bacillus pumilus BslA(37-177) (domain or fragment)

B1: Bacillus subtilis BslA(42-181) (domain or fragment, B. subtilis, UniProt P71014 42-181, looked up)
chain: MRTQSTASLFATITGASKTEWSFSDIELTYRPNTLLSLGVMEFTLPSGFTANTKDTLNGNALRTTQILNNGKTVRVPLALDLLGAGEFKLKLNNKTLPAAGTYTFRAENKSLSIGNKFYAEASIDVAKRSTPPTQPCGCN
notes: BslA of Bacillus subtilis, truncated protein BslA 42-181 (mature region), on which the previous analyses were based; also called Bs-BslA; source: E. coli BL21 (DE3) pLysS, purified (Glutathione Sepharose, TEV cleavage, SEC)
- stoichiometry N [4]: 2
